Laboratory results published in the domain aggregation screens of Martell et al. (2025).

Assay: soluble fraction after stress (log2 fold change); higher = more stays soluble; pooled small domains, quantitative proteomics
Settings: stress: 50 degC
Procedure, shortened: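 Custom libraries of small protein domains were pooled and measured in a high-throughput format, with quantitative proteomics as the read-out. Each library was stressed at 50°C. The value is the log2 fold change in the amount of each protein that stays soluble after stress, used as a measure of aggregation propensity; higher values mean more of the protein stays soluble.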

Row | Sequence | soluble fraction (log2)
1 | HMSNEYLMPNLIGMSWDEAKSKYSQYMTLVPEQEWSEVTKDQIFDQEYPEGRKVKIGTEVTVKVSMGI | -0.192
2 | HMKYSNDEVERDLYVRGVIYQIGDLVENKLDGTSGEVVRRGPNYVQYTDGENFYKAFLSALQEQK | -0.354
3 | HMTGTKEQQVVMLNNILQKQLQAFELQGKRDYPMVTMKNMYNTLSKMVENAGLQTVESYFVDPIKGQQM | -0.0334
4 | HMDGRVQATAEKLRAALDRLARSSVGSPMIERQLTVAALAREARVGRNAIYANHRDILDELIRVRQQRRA | 0.144
5 | HMQISYDVPNLIGKSYEEVMTDPSILGEHFTVVLGETKTDEDTDAGVILHQDPAADSKVQDEVTPITVTVS | 0.42
6 | HMKKEQVIVPNVVGDTYDVALRKLTDAKLKVGETFPADREGHQGVIEKQSPAAGETVDEDTPVALFFKV | 0.0344
7 | HMDGMRASDMVRAALAGAGKTQKELAEHMGWTPQNLSGRLKNNSLTFDELSKALHFAGYEVSMSDANGAG | 0.0567
8 | HMSNENIDQDELQAIIQKVLASNQDAVAKYKAGKTAVIGFLIGQVMRQLNKKIDVALAKKTLLVFLEK | -0.396
9 | HMGPELGENEKLIFDIIKKESKMELGILKAQVDLSNKKWDKALKGLATHGLTKVNKTDDGLFIELI | -0.095
10 | HMVSGVMAQQAIAVLVQQEDKHAPLSDQALAERLQVQGIDISRRTVAKYRQLLQIPSAATRR | -0.419
11 | HMRAPEIEAARSDLDVGQTVQIVRHLHGNQYEVFYRGAQWQAEAVGSSGANDAQTAVITGKNGNILLIQI | -0.0658
12 | HMSKKTQKDEVVDLFLKTGNEPLHYKEISKKTGIIVHNVRRITGQNVVGKTDNPVFKRVSPGVYKLID | -0.546
13 | HMLVYQRLDKDNFIFEGKTLLNDIYKILDIESNYFEAIRGEADSIAGLLLEIAKSIPTINTEF | -0.171
14 | HMKTMSLSSIEKAIYKTKYENEPTSQRLSRIESSVFGTNFSQDSESERIARISSAINAQKSAK | 0.125
15 | HMASMHDGVAARLRAMVFERELAPGEFIDERRLAQQWQISRTPLREALKVLAAEGLVELVPRRGARVV | -0.298
16 | HMEKPAQDVLASHREWMGEMIKAEHMTAKQVWRLLRERADIGVSYPTVKRYLRAHFQFGGPS | -1.28
17 | HMNENNFIVAMRERLAQFIETSGTSQSRIAKELGVSKSTVSLFLGGTYGGNNQELARNLEQLLSMGAARR | -0.96
18 | HMKKTAAKVLGESEGKPVTVQSGRYGPYVQLGSIRATLPKDLEQDDVTLDRALELISAKAERAGK | 0.122
19 | HMQLKKDTILSYIEEKLIDSYNSNKGFTTQEISVALNMQRTNVSAILNNLVKENKLVKTKGKPVRYFLSG | -0.708
20 | HMDDFGERLRKLRVAQDLTQQQLGEKLGVVPSTIGKYEKVKDSYPSIEVLIKLSDFFSVSTDYLLKG | -1.88
21 | HMRAFTPSEAQVAHARRVMEAFWQHQREGHGAFALDGKMVDAPIVKAAARVLARAGLQDPNHPIHLA | -0.0227
22 | HMTANTQVENIRLELQRYMDEHGISQVTVARGIGKTHPVISQFLNNKYPGDVEEVARAIESWLTKQHEKAA | -0.0876
23 | HMDKKEFGKRLKNLRIRNKMSQQAMADSLGYTSRSTINKIEEGINEMSYDKIVRLMELYGLSRPDLGLEPI | -0.154
24 | HMTGLSNFEFNQIKLDLMHELTQTPLRLTDLVNRITSFENEKTITVIRFLVDEGILLLKDDTLSVAKID | -0.542
25 | HMPADHYEVLGIARDADAAEVKRAYRRLARESHPDANHGDSGAEVRFKAVSAAYEVLSDPERRARYDRFGH | -0.00211

Row | Sequence | soluble fraction (log2)
26 | HMSDIYSLFERELGRTLSSYEYEIIGKWIEKGVSEDTIKRALKEAILNGVTNFKYIDKIIYDWSKN | -0.499
27 | HMSSLSGVRRTLLDSLGMPPDASDEELADRREELRGSLDTAPQARRKWIEQQLARIDAITALDASG | -0.035
28 | HMDDFTEVLLQYLKDHDGYSSIHDKTDAETIYNTFGVSKKTFKKAVGDLYKKRLIVLEEEGIRLLG | -0.0665
29 | HMITKEDVANKKVNLLFFGNFHKMKLPDFEWGITEMMQDRDYLYGSLTKDLYFLGLVLDRKYKI | 0.0334
30 | HMDKFTYVVKKEDEQYQIKDILRHNFTFSSRLRKKLKQNNSIFLNGAETVGWATPKEGDIISVRLP | -0.433
31 | HMVIREVNDNPVSAEELRLGDRVKVLSLGQNGEIVTLPDEKGELTVQVGILKAKVNLDDIMLI | 0.0226
32 | HMDGIIIPDVSGKSYAEAVATLNEKGFKVEKGEDAGSSLAKDLVSYTNPAAGNRAKSGATISVFVSTGANA | 0.17
33 | HMEAFDYLGRRTRDLLERQGWTTVPLVRDAYLAVPGGERLLQVPGFGRKSLREVRRWLWLQIGDPRFE | -1.36
34 | HMDDNRSLSDLAQQVFKRENIQVSRDTLSLLVSRLGSDRAVSRQEIEKLALFAGSNGKLTEEDIHNALG | 0.192
35 | HMTLPGQDFIRASQLKELIAKYDKQYYEEGVSDISDAEYDRLYEEYLEFENKYPELKDMADAPTKRV | 0.332
36 | HMKSSLAKNLETLMQERQISQTRLSKISGVSQSYIFKILNDQIKKPSLDTLEKLATALDSTVAQLNH | -0.00953
37 | HMTKGVKVEIGTEEASVDLYVVMEYGTPIQKAAYDAQESVRKAIETMTNLHVVRVDVHVQGVSF | -0.134
38 | HMSYSYIYNYALKVKMDISSTGGKKPYAYYYYDHSYKLAEEILSLSEETESIELQNKYDELKDFYENP | -1.32
39 | HMTFPAILRELLEKHPQTGKRTTLKELGEAVGTRQQSISLYRNGDTQPSPDILVRIAAFFGVSVDYLL | -0.419
40 | HMDSPVLTAEIKALIDKELEQNAVKLATGLKKQRKRATDIHDALIRQGHEVSYRTVVRYIRNKTAQTS | -0.061
41 | HMSSDKVWSFEASGKQLQASYVAFENETVYLRASEDGSLLQFPLTDFGMKDQLVVLELYELSAKINRSN | -0.49
42 | HMDLPDTLSMPNALKVLEDNGFPTSKAKLYKMTSQEQIPFMKYGNKLVFSRKALIEWAHKQLV | -1.1
43 | HMPSGRIRWFDAKKGYGFIAGDDGKDVFLPQTALPQGVRNPRKGAKVEYSVIEGNRGQVAMGVTMV | -0.0368
44 | HMFEARNTTFSEDGKTITETYGVKRIETEFVSDSTIVQKLYDNDVLTKTKTITFSADGLSIKEDV | 0.0154
45 | HMVVLPPTEDAPEWAQVFDRLGRPESADGYKLPVPEGADPAFAKLASAKMHELGLSAKQGAALAAWWNEQA | 0.108
46 | HMAEVGDFTLAELIKVLFNEAGVLKAPVELRNDNTGGLQYRVGAYTDSETGWETIASIADLKGA | -0.436
47 | HMIIVMRKGATEAQVNDIVERVRAAGFGVHLSQGEERTIIGAIGGDRAVLADLNLEAAPGVERVTPIS | 0.0417
48 | HMGTKRWELPRRVQQMATQHGKSISTAAAEELVSRSGENTRMLDNDLVKLAQMVEAPQIELADVERWIVR | 0.221
49 | HMNIGEKIKKIRTQQNKSTYELADIINKNGFKISQSAISKIENGRKKIDIETLEEIAKALDIEVDLLIT | -0.14
50 | HMATYETEVISGVNLRSAPNTSASVYRLLSKGEDIHVIQKVNDYWLKVQTKDGKIGYISASSKYTNYIA | -0.29

Row | Sequence | soluble fraction (log2)
51 | HMNMTDVLVVNQTVRGGTQITESMLSVKKVDKSSLPDNYLKASLKDEVVGKYFDLGLTSGGVLTKDNISVS | 0.00597
52 | HMVQARDQNIEEGRQLVLRELDRLDLVNESLTDVAADMNMKSVEDMYAAIGAGDLRVGQVVHAVLKRAD | 0.00761
53 | HMLELTGEEEFVIRTLTRQGDLHINALVVETDIPINRMISLLFELEMKGVVKALVGGVYHLLG | -2.04
54 | HMSGAQIQQLLESRAPQPGMNPDMIVRRKTYMNNVFNALKGALLRVANGSSPEEVKTEVDAAIQVDPDKL | 0.0889
55 | HMKQENRLKILRKEKGLTQTKLANEIGVSKRTIIAWENDERQIKPDKAQQLADYFGVKEGYLLGYTNN | 0.132
56 | HMTDNSTTTIRNLKIEWLLEEIRNAVRTGVSVDAAVERISNNPFVKPPEDLLNEARIIFLQNAGQI | -0.166
57 | HMNKSEFLNELEKRIRVLEKNEIKDILAEYSQHIDMRMGSGLSEAEAIKDFGDMDDLAAEILEAY | 0.08
58 | HMEEIDLTPAEEILNKLPDNSRGYLIPTLNKIQNAYRFLPDPAMELLMEFFNVSRAEIFGVISFYPQLMI | -0.0574
59 | HMELKYIDYDEALVVYAKTVTASGGGLSGVKDEGGIRKVLDFVQNDLYYPTFVDKLTYLVFGL | 0.103
60 | HMNKPTFNIFNNRLTFPFKGDITIYSLDGKRVFSAYNESSVNLSFLNRGSYISEFNNSRSVLIL | -1.39
61 | HMYYQEDHDIILEETEDVTDPYLITLRGYIFLNNLQWVAARQAFLSADERFRHRHYSALIAPIMQTIDNAA | -0.013
62 | HMSELADDPVYTALEKAADKAGLQLTVRILNDLADAVLKRGKKKLTAAQAGKVIARAESELAKSRID | -0.0759
63 | HMTSVFQNSDGTWGHLTKTVNPLIYTIEYGRRTGFSSREEAEESYQRSLTSYQDQLSKLKKERD | 0.314
64 | HMQNLSELAYVNLRDALMQGQMKPGEELPLRPISRSFGISATPMREALLRLVTESALEMDSRGRISVP | -0.341
65 | HMDGFAEFWSAYPKKVGKGAAEASWRKHRPPLQTVLDAVKRQAESDQWRKDGGQFIPNPATWLNQKRWEDD | 0.0948
66 | HMSFGWESLENKEGVADTDLHPSGWVRIEDSRIFVVSEGDFINKGSKVTVLTVDGNRVVVRELI | -0.522
67 | HMTHFRTDERRREILSTIEADGRVSVSEIASRFDVSPVTIRSDLNYLAIQGKLKRVRGGAVLLDH | -0.76
68 | HMKSVTVIFKESGNVVSSKKLSVVATAQYVDKSRITAPAGYRIATTDSKLKISENNTVTVEVK | 0.212
69 | HMTSLAGIERFLASGAIAGVGEAMAHRLVQKFGKETLEIIEKKPSRLTEVAGVGKKTAAKIHASYMEK | -0.106
70 | HMSQISKLWRPSEDVTEILTRSGMDSEFLEGLIPEFIIYWSERADVLVSYNSKFIEHARLKWAQHSAEIKT | -2.63
71 | HMSILTELDIGDKVEVVAGPFKGIQANITRIEPVRKEVTVILLDAPYQLPVTVDADYLKIIQKS | -0.155
72 | HMAFKDDDVQKAYDRYMDRYGELSVLYSDNGLKVDDDLFYKNNIPPNGKFTKEFFDELYELVNMEFINNY | -0.0827
73 | HMNGKTIEVPDITEKSIAEAQLILNQKKLRYNVVDSTRFDPAYLPFSVLTQEPEAGDEVKKNRTIYITLNP | -0.0871
74 | HMEELPVLHLKHVVVEGESLWKLAEQYLNDGTRWQEIYMLNRENISNPDLIREGQELNIQFLQGE | -0.574
75 | HMNLTLMDALKAAGLPVDGINLSMVNKMMEEQMPIDKTSLNQMYQLVQDNKDINVTTLVELKRLG | -0.0277
